Test results: US20230399403A1 (BIONTECH, published 2023)
Positions count from the first letter of the chain named. Names and notes keep the numbering of the source.

B1: MAB-19-0202 (antibody, V domains shown)
VH: QSVEESGGRLVTPGTPLTLTCTVSGFSLYSYNMGWVRQAPGKGLEYIGIISGGTIGHYASWAKGRFTISKTSSTTVDLKMTSLTTEDTATYFCARAFYDDYDYNVWGPGTLVTVSS
VL: AAVLTQTPSPVSAAVGGTVTISCQSSQSVYGNNQLSWYQQKPGQPPKLLIYQASKLETGVPSRFKGSGSGTQFTLTISDLESDDAATYYCAGGYSSSSDTTFGGGTEVVVK
notes: Chimeric rabbit/human antibody: rabbit variable regions cloned N-terminal of human IgG1 / kappa constant parts with L234A and L235A (LALA)
B2: MAB-19-0598 (antibody, IgG1, V domains shown)
VH: QVQLVESGGDVVKPGRSLRLSCKASGIDFSSVYYMCWVRQAPGKGLEWIACIYVGSSGVSYYATWAKGRFTISRDTSTSTLFLQMNSLRAGDTATYYCARAGYVGAVYVTLTRLDLWGQGTLVTVSS
VL: DIQMTQSPSSLSASVGGTVTITCQSSQSIYTNNDLAWYQQKPGQPPKLLIYDASKLASGVPSRFSGSGSGTQFTLTISSLQSEDAATYYCLGGYDDDADNAFGGGTEVVVK
notes: Recombinant humanized hIgG1-LALA antibody
B3: MAB-19-0603 (antibody, IgG1, V domains shown)
VH: QVQLVESGGGLVQPGTSLRLSCSVSGFSLYSYNMGWVRQAPGKGLEYIGIISGGTIGHYASWAKGRFTISRDTSKTTLYLQMNSLTTEDTATYFCARAFYDDYDYNVWGPGTLVTVSS
VL: DIVMTQSPSSLSASVGDRVTITCQSSQSVYGNNQLSWYQQKPGKAPKLLIYQASKLETGVPSRFSGSGSGTDFTLTISSLQPEDFATYYCAGGYSSSSDTTFGGGTKVVIK
notes: as for B2
B4: MAB-19-0608 (antibody, IgG1, V domains shown)
VH: B3 VH
VL: B3 VL with V3Q, S10T, D72Q, E83D, T87S, G104Q, V109E
notes: as for B2
B5: MAB-19-0613 (antibody, IgG1, V domains shown)
VH: B3 VH
VL: B3 VL with V3Q, Q40K, K44Q, G104P, V109D
notes: as for B2
B6: MAB-19-0618 (antibody, IgG1, V domains shown)
VH: B3 VH
VL: AIQLTQSPSSLSASVGGTVTITCQSSQSVYGNNQLSWYQQKPGQPPKLLIYQASKLETGVPSRFRGSGSGTQFTLTISSLQSEDFATYYCAGGYSSSSDTTFGGGTEVVVK
notes: as for B2
B7: MAB-19-0233 (antibody, human IgG1, V domains shown)
VH: QSLEESGGDLVKPGASLTLTCKASGIDFSSVYYMCWVRQAPGKGLEWIACIYVGSSGVSYYATWAKGRFTISKTSSTTVTLQMTSLTAADTATYFCARAGYVGAVYVTLTRLDLWGQGTLVTVSS
VL: AAVLTQTPSPVSAAVGGTVTISCQSSQSIYTNNDLAWYQQKPGQPPKLLIYDASKLASGVPSRFSGSGSGTQFTLTISGVQSDDAATYYCLGGYDDDADNAFGGGTEVVVK
notes: Chimeric rabbit/human antibody, human IgG1 constant parts with L234A and L235A (LALA)
B8: MAB-19-0583 (antibody, IgG1, V domains shown)
VH: B2 VH
VL: DVVMTQSPSTVSASVGDRVTLTCQSSQSIYTNNDLAWYQQKPGQPPKLLIYDASKLASGVPDRFSGSGSGTDFTLTISSLQADDFATYYCLGGYDDDADNAFGQGTKVEIK
notes: as for B2
B9: MAB-19-0594 (antibody, IgG1, V domains shown)
VH: EVQLEESGGGLVKPGGSLRLSCAASGIDFSSVYYMCWVRQAPGKGLEWVSCIYVGSSGVSYYATWAKGRFTISRDNSKNTLYLQMNSLRAEDTAVYYCARAGYVGAVYVTLTRLDLWGRGTLVTVSS
VL: B2 VL
notes: as for B2
B10: MAB-19-0208 (antibody, human IgG1, V domains shown)
VH: QSVEESGGRLVTPGTPLTLTCTVSGFSLSRYYISWVRQAPGKGLEWIGSFYADSGTTWYATWVKGRFTFSTASSTTVDLKMTSPTTEDTATYFCARNSGDAQFNIWGPGTLVTVSS
VL: AAVLTQTPSPVSAAVGGTVSISCQSSESVYNKNQLCWYQQKPGQRPKLLIYDASTLASGVPSRFSGSGSGTQFTLTISDVQSDAAATYYCAGGYSVTSDTTFGGGTEVVVR
notes: Chimeric rabbit/human antibody, human IgG1 constant parts with L234A and L235A (LALA); also called chimeric anti-PD-1 MAB-19-0208
B11: MAB-19-0217 (antibody, human IgG1, V domains shown)
VH: QSVEESGGRLVTPGTPLTLTCTVSGFSLSRYYMTWVRQAPGKGLEWIGIIYPDTGTTWYASWVKGRFTFSKTSSTTVDLKMTSPTTEDTATYFCARSTTDAQFNIWGPGTLVTVSS
VL: B10 VL with S28N, N31T, K32D, D79G, A84D, V96T, R111K
notes: Chimeric rabbit/human antibody, human IgG1 constant parts with L234A and L235A (LALA); also called chimeric anti-PD-1 MAB-19-0217
B12: MAB-19-0223 (antibody, human IgG1, V domains shown)
VH: QEHLVESGGGLVQPEGSLTLTCKASGIDFSDTYWICWVRQPPGKGLEWIGCIGIGGSGSTYYAGWAKGRFTISKTSSTTVTLQMTTLTDADTATYFCATEIPYFNVWGPGTLVTVSS
VL: AQVLTQTPSSVSAAVGGTVTINCQSSQSVYNKNWLAWYQQKPGQPPKLLIYDASKLTSGVPSRFKGSGSGTQFTLTISGVQSDDAATYYCQGTYDVNGWLVAFGGGAEVVVK
notes: Chimeric rabbit/human antibody, human IgG1 constant parts with L234A and L235A (LALA); also called chimeric anti-PD-1 MAB-19-0223
B13: RiboMab-19-0233 (antibody, V domains shown)
VH: B7 VH
VL: B7 VL
notes: Tested as HEK293T/17 supernatant, concentration not determined

target: T1, Recombinant human PD-1 human-FC Chimera (R&D Systems) (human, UniProt Q15116 25-170); test: ELISA, coated recombinant human PD-1 human-Fc chimera
T1 construct: Bought construct; also called recombinant human-PD-1 extracellular domain; hPD-1 (ELISA); not shown: human Fc part of the bought chimera
Description: (§1) The binding potency of chimeric and humanized anti-PD-1 antibodies to recombinant human-PD-1 extracellular domain was determined by ELISA. Recombinant human PD-1 human-FC Chimera (R&D Systems) was coated on 384-well MaxiSorp™ flat bottom plates (Nunc) at a concentration of 0.625 μg/mL in PBS (Vendor) for 60 minutes at room temperature. Coated plates were washed three times with PBS, 0.1% Tween (PBS-T), blocked by incubation with PBS, 2% BSA, 0.05% Tween for 60 minutes at room temperature, and washed for an additional three times with PBS-T. Anti-PD-1-antibodies were added in PBS, 0.5% BSA, 0.05% Tween (ELISA buffer) in concentrations ranging from 1,000 to 0.06 ng/mL or 2,500 to 0.15 ng/mL and the plate was incubated for 60 minutes at room temperature. […] After 3 washes with PBS-T, horseradish peroxidase coupled goat-anti-human-IgG (Fab′)₂ fragment (AbD Serotec; Cat. No. STAR126P) was added in ELISA buffer at a dilution of 1:5,000. The plate was incubated for 60 minutes at room temperature, and washed 6 times with PBS-T before TMB solution (Thermo Fisher Scientific) was added. After 10 minutes HCl was added and the absorbance at wavelengths of 450 and 620 nm recorded using a Tecan Infinite M1000 reader. Data was fitted with a 4-parameter logistic model and EC50 values calculated using GraphPad Prism 8.4.3 (GraphPad Software, San Diego, CA, USA).

T1 sequence (Q15116 25-170, change not shown): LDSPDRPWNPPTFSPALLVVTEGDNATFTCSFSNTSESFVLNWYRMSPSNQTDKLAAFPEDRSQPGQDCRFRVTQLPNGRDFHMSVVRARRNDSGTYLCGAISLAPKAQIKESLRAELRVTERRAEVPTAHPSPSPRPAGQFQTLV

| Binder | EC50 [ng/mL] |
| --- | --- |
| B1 | 4 |
| B2 | 8.8 |
| B3 | 3.3 |
| B4 | 7.7 |
| B5 | 4.4 |
| B6 | 8 |
| B7 | 7.2 |
| B8 | 7.5 |
| B9 | 14.6 |

target: T2, full-length human PD-1 expressed on cells (human, UniProt Q15116 25-288); test: cell-based or functional assay
T2 sequence (Q15116 25-288 limits assumed): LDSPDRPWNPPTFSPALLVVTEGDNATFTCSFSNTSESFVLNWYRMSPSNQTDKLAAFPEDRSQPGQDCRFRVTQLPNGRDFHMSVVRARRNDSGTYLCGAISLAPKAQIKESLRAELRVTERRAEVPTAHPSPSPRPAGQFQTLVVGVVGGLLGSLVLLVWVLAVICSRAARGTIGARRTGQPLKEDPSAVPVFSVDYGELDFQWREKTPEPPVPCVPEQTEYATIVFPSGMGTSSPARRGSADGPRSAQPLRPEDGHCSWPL

| Binder | hPD-1 blockade assay IC50 [ng/mL] |
| --- | --- |
| B1 | 56 |
| B2 | 368 |
| B3 | 85 |
| B4 | 63 |
| B5 | 93 |
| B6 | 57 |
| B8 | 188 |
| B9 | 311 |

target: T2, full-length human PD-1 expressed on …; test: cell-based or functional assay; remark: another data set of the same source

| Binder | hPD-1 blockade assay IC50 [ng/mL] |
| --- | --- |
| B1 | 324 |
| B10 | 870 |
| B11 | 720 |
| B12 | 913 |
| B7 | 657 |

target: T2, full-length human PD-1 expressed on …; test: flow cytometry, K562 cells electroporated with full-length human PD-1 mRNA, dilutions of RiboMab-containing supernatant
Description: 20×10⁶ cells K562 cells growing in log-phase were used for electroporation of full-length human PD-1. Cells in 250 μL X-Vivo 15 medium (LONZA Technologies, cat. no. BE02-060F) were combined in 4 mm gap cuvettes with 10 μg human PD-1-encoding IVT-mRNA. Cells were immediately electroporated with a BTX ECM830 (BTX Harvard Apparatus) with the following setting: 200 V, 3 pulses, 8 ms.
Binding of RiboMabs to K562 cells expressing PD-1 was analyzed by flow cytometry. […] Cells were washed twice with FACS buffer, re-suspended in 60 μL FACS buffer and analyzed on a BD FACSCanto™ II flow cytometer (BD Biosciences). Binding curves were analyzed by non-linear regression (log(agonist) vs. response—variable slope (four parameters)) using GraphPad Prism V9.1.0 software.

| Binder | fold difference in EC50 values (RiboMab-19-0233 against RiboMab-19-0202) [fold] |
| --- | --- |
| B13 | ~2.5 |

target: T2, full-length human PD-1 expressed on …; test: cell binding, HEK-293 cells expressing full-length human PD-1, CellInsight CX5 imaging
Description: (§2) Binding of chimeric and humanized anti-PD-1 antibodies to cell surface expressed hPD-1 was analyzed using HEK-293 cells ectopically expressing full-length human-PD1 (BPS Biosciences; Cat. No. 60680). Cell cultures were grown in MEM containing 10% FCS, ix MEM NEAA, 1 mM Na pyruvate and 100 μg/mL Hygromycin B. Hygromycin B was omitted when cells were plated for testing antibody binding. 1,000 cells in 20 μL medium were seeded per well in black 384-well cell-culture treated plates with clear bottom and were incubated for 2 hours at 37° C. and 5% CO₂. Anti-PD-1 antibodies were added in 5 μL medium to final concentrations ranging from 1,000 to 0.06 ng/mL or 620 to 0.45 ng/mL. […] After an 18 hours incubation at 37° C. and 5% CO₂, plates were washed once with 25 μL PBS, 0.05% Tween 20 (cell wash buffer) and Alexa-Fluor-488-conjugated AffiniPure goat-anti-human-IgG F(ab′)₂ fragment (Vendor) was added at a concentration of 0.8 μg/mL in 20 μL medium. Plates were incubated for 4 hours at 37° C. and 5% CO₂ in the dark, washed once with 25 μL cell wash buffer and incubated for 10 minutes with 20 μL medium containing 5 μg/ml Hoechst (Invitrogen). Cell-associated immunofluorescent signals were recorded using a CellInsight CX5 high content imager device (Thermo Fisher). Data was fitted with a 4-parameter logistic model and EC50 values calculated using GraphPad Prism 8.4.3.

| Binder | EC50 [ng/mL] |
| --- | --- |
| B10 | 13.9 |
| B11 | 6.3 |
| B12 | 7 |
| B7 | 16.8 |

target: T2, full-length human PD-1 expressed on …; test: as above; remark: another data set of the same source
Description: as §2

| Binder | EC50 [ng/mL] |
| --- | --- |
| B1 | 0.5 |
| B2 | 5.7 |
| B3 | 2.8 |
| B4 | 2.8 |
| B5 | 1.2 |
| B6 | 1.7 |
| B7 | 2.4 |
| B8 | 3.6 |
| B9 | 9.5 |

target: T1, Recombinant human PD-1 human-FC Chimera …; test: ELISA, coated recombinant human PD-1 human-Fc chimera; remark: another data set of the same source
Description: as §1

| Binder | EC50 [ng/mL] |
| --- | --- |
| B1 | 3.5 |
| B10 | 4 |
| B11 | 9.2 |
| B12 | 6.6 |
| B7 | 6.3 |
